Measurements as given in the supplement of paper PMC7125110.
± gives the standard error. For some assays here: Fewer inactive variants are shown than the library holds.

B1: glmS ribozyme (parent)
chain: AUAAAAGCGCCAGAACUACAGAAAUGUAGUUGACGAGGAGGAGGUUUAUCGAAUUUUCGGCGGAUGCCUCCAAA

Key:
Conditions in all cases: with glucosamine-6-phosphate
glucosamine-6-phosphate [1] = variants of: B1; test: kcat; higher = faster cleavage; RNA array
Method in brief: (§1)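 kcat and KM were obtained from weighted Michaelis–Menten fits across concentrations of kobs values. Those came from one- or two-exponential decay fits to per-tile medians normalised to baseline and to non-cleaving reference variants. The variants were barcoded ribozymes transcribed in situ by E. coli RNA polymerase on sequenced MiSeq chips and tracked through a hybridised Cy3 probe at 37 °C, with 40 μM to 10 mM glucosamine-6-phosphate in HEPES/KCl/Mg(OAc)2 buffer flowed in.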

glucosamine-6-phosphate [2] = variants of: B1; test: KM; higher = weaker cofactor use; RNA array
Method in brief: as §1

glucosamine-6-phosphate [3] = variants of: B1; test: self-cleavage kobs at 160 uM GlcN6P; higher = faster cleavage; RNA array
Method in brief: as §1

glucosamine-6-phosphate [4] = variants of: B1; test: self-cleavage kobs at 640 uM GlcN6P; higher = faster cleavage; RNA array
Method in brief: as §1

glucosamine-6-phosphate [5] = variants of: B1; test: self-cleavage kobs at 2500 uM GlcN6P; higher = faster cleavage; RNA array
Method in brief: as §1

glucosamine-6-phosphate [6] = variants of: B1; test: self-cleavage kobs at 10000 uM GlcN6P; higher = faster cleavage; RNA array
Method in brief: as §1

glucosamine-6-phosphate [7] = variants of: B1; test: self-cleavage kobs at 40 uM GlcN6P; higher = faster cleavage; RNA array
Method in brief: as §1

Row | Variant | kcat (glucosamine-6-phosphate [1]) | KM (glucosamine-6-phosphate [2]) | self-cleavage kobs at 160 uM GlcN6P (glucosamine-6-phosphate [3]) | self-cleavage kobs at 640 uM GlcN6P (glucosamine-6-phosphate [4]) | self-cleavage kobs at 2500 uM GlcN6P (glucosamine-6-phosphate [5]) | self-cleavage kobs at 10000 uM GlcN6P (glucosamine-6-phosphate [6]) | self-cleavage kobs at 40 uM GlcN6P (glucosamine-6-phosphate [7])
1 | U30C U55C | 0.000295 ± 3.2e-05 s⁻¹ | 1490 ± 290 µM | 3.54e-05 ± 9.7e-06 s⁻¹ | 8.83e-05 ± 8.8e-06 s⁻¹ | 0.000167 ± 2.4e-05 s⁻¹ | 0.000281 ± 3.9e-05 s⁻¹ | 
2 | G29U A64G | 0.00507 ± 0.0025 s⁻¹ |  | 0.000495 ± 0.00011 s⁻¹ | 0.000939 ± 0.0002 s⁻¹ | 0.00221 ± 0.00045 s⁻¹ | 0.00594 ± 0.00078 s⁻¹ | 0.000212 ± 3.2e-05 s⁻¹
3 | C10G A52G U56A C70A | 1.68e-05 ± 4.2e-06 s⁻¹ |  |  |  |  |  | 
4 | A6C C16G U31C C34G C68A | 1.74e-05 ± 6.6e-06 s⁻¹ |  |  |  |  |  | 
5 | A33U C67G C68G | 9.15e-05 ± 1.3e-05 s⁻¹ |  | 4.67e-05 ± 1.9e-05 s⁻¹ | 0.000106 ± 1.7e-05 s⁻¹ | 9.54e-05 ± 1.6e-05 s⁻¹ | 7.94e-05 ± 2e-05 s⁻¹ | 6.63e-05 ± 2e-05 s⁻¹
6 | A6G C11A | 2.52e-05 ± 7.7e-06 s⁻¹ |  |  |  |  |  | 
7 | A42U U69C C71U | 0.00168 ± 0.0003 s⁻¹ | 700 ± 210 µM |  | 0.000956 ± 0.00016 s⁻¹ | 0.00156 ± 0.00038 s⁻¹ | 0.00136 ± 0.00028 s⁻¹ | 8.14e-05 ± 1.7e-05 s⁻¹
8 | G66C C68U C71G | < 1e-05 s⁻¹ |  | < 1e-05 s⁻¹ |  |  |  | 
9 | G32U G66U | 9.79e-05 ± 9.9e-06 s⁻¹ | 7290 ± 1700 µM |  |  |  | 5.66e-05 ± 1.4e-05 s⁻¹ | 
10 | A6U C68G | 1.22e-05 ± 3e-06 s⁻¹ |  |  |  |  |  | 
11 | G40A U57C | 3.56e-05 ± 5.2e-06 s⁻¹ |  |  |  | 4.59e-05 ± 2e-05 s⁻¹ | 3.15e-05 ± 1.2e-05 s⁻¹ | 
12 | A48U C58G | 1.01e-05 ± 4e-06 s⁻¹ |  |  |  |  |  | 
13 | G44U A52U | 1.54e-05 ± 1.1e-06 s⁻¹ |  |  | < 1e-05 s⁻¹ |  |  | < 1e-05 s⁻¹
14 | A6U U46A | 0.000115 ± 1.6e-05 s⁻¹ |  |  |  |  |  | 
15 | A6U C68U | 8.73e-05 ± 5.1e-06 s⁻¹ | 491 ± 140 µM |  | 4.75e-05 ± 8.3e-06 s⁻¹ | 8.07e-05 ± 9e-06 s⁻¹ | 8e-05 ± 7.3e-06 s⁻¹ | 
16 | A6U U46G | 0.000103 ± 5.5e-06 s⁻¹ | 7260 ± 730 µM |  |  | 2.66e-05 ± 1.1e-05 s⁻¹ | 5.95e-05 ± 1.5e-05 s⁻¹ | 
17 | C16A C67G | 4.14e-05 ± 5.2e-06 s⁻¹ |  |  | 3.73e-05 ± 1.5e-05 s⁻¹ | 2.82e-05 ± 1.1e-05 s⁻¹ | 4.37e-05 ± 8e-06 s⁻¹ | 
18 | A12C G66A | 0.00855 ± 0.0022 s⁻¹ | 1580 ± 570 µM | 0.000705 ± 0.00014 s⁻¹ | 0.00241 ± 0.00027 s⁻¹ | 0.00753 ± 0.0014 s⁻¹ | 0.00648 ± 0.0015 s⁻¹ | 0.00028 ± 7e-05 s⁻¹
19 | A33U G38C | < 1e-05 s⁻¹ |  |  |  |  | < 1e-05 s⁻¹ | 
20 | G44U U47A | 0.00016 ± 1.2e-05 s⁻¹ | 1850 ± 460 µM |  | 4.97e-05 ± 2.4e-05 s⁻¹ | 9.01e-05 ± 1.7e-05 s⁻¹ | 0.000136 ± 1.6e-05 s⁻¹ | 
21 | U55C C67G | < 1e-05 s⁻¹ |  |  |  |  |  | < 1e-05 s⁻¹
22 | A14C G51A A53U G59U C68U | 3.12e-05 ± 1.2e-05 s⁻¹ |  |  |  |  |  | 
